Source: patent US20190225650A1, “PEPTIDOMIMETIC MACROCYCLES AND USE THEREOF IN REGULATING HIF1ALPHA” (AILERON THERAPEUTICS, INC., priority 2013, published 2019)
Bridge positions count the residues as written; N and C are the ends. Square brackets hold non-standard residues; d marks the D form. S5 = C=CCCC[C@](C)(N)C(=O)O; Nle = CCCC[C@H](N)C(=O)O

B1: SP-14 (peptide)
peptide: Ac-FIDEEAL[Nle][S5]LVI[S5][Nle]ALDRI-NH2
modifications: staple 9-13
SMILES: CCCC[C@H](NC(=O)[C@H](CC(C)C)NC(=O)[C@H](C)NC(=O)[C@H](CCC(=O)O)NC(=O)[C@H](CCC(=O)O)NC(=O)[C@H](CC(=O)O)NC(=O)[C@@H](NC(=O)[C@H](Cc1ccccc1)NC(C)=O)[C@@H](C)CC)C(=O)N[C@@]1(C)CCCC=CCCC[C@@](C)(C(=O)N[C@@H](CCCC)C(=O)N[C@@H](C)C(=O)N[C@@H](CC(C)C)C(=O)N[C@@H](CC(=O)O)C(=O)N[C@@H](CCCNC(=N)N)C(=O)N[C@H](C(N)=O)[C@@H](C)CC)NC(=O)[C@H]([C@@H](C)CC)NC(=O)[C@H](C(C)C)NC(=O)[C@H](CC(C)C)NC1=O
B2: SP-15 (peptide)
peptide: Ac-FIDEEVA[Nle][S5]LVI[S5][Nle]ALDRI-NH2
modifications: staple 9-13
SMILES: CCCC[C@H](NC(=O)[C@H](C)NC(=O)[C@@H](NC(=O)[C@H](CCC(=O)O)NC(=O)[C@H](CCC(=O)O)NC(=O)[C@H](CC(=O)O)NC(=O)[C@@H](NC(=O)[C@H](Cc1ccccc1)NC(C)=O)[C@@H](C)CC)C(C)C)C(=O)N[C@@]1(C)CCCC=CCCC[C@@](C)(C(=O)N[C@@H](CCCC)C(=O)N[C@@H](C)C(=O)N[C@@H](CC(C)C)C(=O)N[C@@H](CC(=O)O)C(=O)N[C@@H](CCCNC(=N)N)C(=O)N[C@H](C(N)=O)[C@@H](C)CC)NC(=O)[C@H]([C@@H](C)CC)NC(=O)[C@H](C(C)C)NC(=O)[C@H](CC(C)C)NC1=O
B3: SP-16 (peptide)
peptide: Ac-FIDEEVLA[S5]LVI[S5][Nle]ALDRI-NH2
modifications: staple 9-13
SMILES: CCCC[C@H](NC(=O)[C@]1(C)CCCC=CCCC[C@](C)(NC(=O)[C@H](C)NC(=O)[C@H](CC(C)C)NC(=O)[C@@H](NC(=O)[C@H](CCC(=O)O)NC(=O)[C@H](CCC(=O)O)NC(=O)[C@H](CC(=O)O)NC(=O)[C@@H](NC(=O)[C@H](Cc2ccccc2)NC(C)=O)[C@@H](C)CC)C(C)C)C(=O)N[C@@H](CC(C)C)C(=O)N[C@@H](C(C)C)C(=O)N[C@@H]([C@@H](C)CC)C(=O)N1)C(=O)N[C@@H](C)C(=O)N[C@@H](CC(C)C)C(=O)N[C@@H](CC(=O)O)C(=O)N[C@@H](CCCNC(=N)N)C(=O)N[C@H](C(N)=O)[C@@H](C)CC
B4: SP-20 (peptide)
peptide: FIDEEVLLALVIAAALDRI
modifications: not fully specified; Ac-FIDEEVL-Nle-$-LVI-$-AALDRI-NH2
B5: SP-23 (peptide)
peptide: FIDEEVLLALVIALALARI
modifications: not fully specified; Ac-FIDEEVL-Nle-$-LVI-$-Nle-ALARI-NH2
B6: SP-26 (peptide)
peptide: Ac-FIDEEVLA[S5]LVI[S5]AALDRI-NH2
modifications: staple 9-13
SMILES: CC[C@H](C)[C@H](NC(=O)[C@H](CCCNC(=N)N)NC(=O)[C@H](CC(=O)O)NC(=O)[C@H](CC(C)C)NC(=O)[C@H](C)NC(=O)[C@H](C)NC(=O)[C@]1(C)CCCC=CCCC[C@](C)(NC(=O)[C@H](C)NC(=O)[C@H](CC(C)C)NC(=O)[C@@H](NC(=O)[C@H](CCC(=O)O)NC(=O)[C@H](CCC(=O)O)NC(=O)[C@H](CC(=O)O)NC(=O)[C@@H](NC(=O)[C@H](Cc2ccccc2)NC(C)=O)[C@@H](C)CC)C(C)C)C(=O)N[C@@H](CC(C)C)C(=O)N[C@@H](C(C)C)C(=O)N[C@@H]([C@@H](C)CC)C(=O)N1)C(N)=O
B7: SP-30 (peptide)
peptide: Ac-EIDEEVL[Nle][S5]LVI[S5][Nle]ALDRI-NH2
modifications: staple 9-13
SMILES: CCCC[C@H](NC(=O)[C@H](CC(C)C)NC(=O)[C@@H](NC(=O)[C@H](CCC(=O)O)NC(=O)[C@H](CCC(=O)O)NC(=O)[C@H](CC(=O)O)NC(=O)[C@@H](NC(=O)[C@H](CCC(=O)O)NC(C)=O)[C@@H](C)CC)C(C)C)C(=O)N[C@@]1(C)CCCC=CCCC[C@@](C)(C(=O)N[C@@H](CCCC)C(=O)N[C@@H](C)C(=O)N[C@@H](CC(C)C)C(=O)N[C@@H](CC(=O)O)C(=O)N[C@@H](CCCNC(=N)N)C(=O)N[C@H](C(N)=O)[C@@H](C)CC)NC(=O)[C@H]([C@@H](C)CC)NC(=O)[C@H](C(C)C)NC(=O)[C@H](CC(C)C)NC1=O
B8: SP-31 (peptide)
peptide: Ac-FEDEEVL[Nle][S5]LVI[S5][Nle]ALDRI-NH2
modifications: staple 9-13
SMILES: CCCC[C@H](NC(=O)[C@H](CC(C)C)NC(=O)[C@@H](NC(=O)[C@H](CCC(=O)O)NC(=O)[C@H](CCC(=O)O)NC(=O)[C@H](CC(=O)O)NC(=O)[C@H](CCC(=O)O)NC(=O)[C@H](Cc1ccccc1)NC(C)=O)C(C)C)C(=O)N[C@@]1(C)CCCC=CCCC[C@@](C)(C(=O)N[C@@H](CCCC)C(=O)N[C@@H](C)C(=O)N[C@@H](CC(C)C)C(=O)N[C@@H](CC(=O)O)C(=O)N[C@@H](CCCNC(=N)N)C(=O)N[C@H](C(N)=O)[C@@H](C)CC)NC(=O)[C@H]([C@@H](C)CC)NC(=O)[C@H](C(C)C)NC(=O)[C@H](CC(C)C)NC1=O
B9: SP-32 (peptide)
peptide: Ac-FIDEEDL[Nle][S5]LVI[S5][Nle]ALDRI-NH2
modifications: staple 9-13
SMILES: CCCC[C@H](NC(=O)[C@H](CC(C)C)NC(=O)[C@H](CC(=O)O)NC(=O)[C@H](CCC(=O)O)NC(=O)[C@H](CCC(=O)O)NC(=O)[C@H](CC(=O)O)NC(=O)[C@@H](NC(=O)[C@H](Cc1ccccc1)NC(C)=O)[C@@H](C)CC)C(=O)N[C@@]1(C)CCCC=CCCC[C@@](C)(C(=O)N[C@@H](CCCC)C(=O)N[C@@H](C)C(=O)N[C@@H](CC(C)C)C(=O)N[C@@H](CC(=O)O)C(=O)N[C@@H](CCCNC(=N)N)C(=O)N[C@H](C(N)=O)[C@@H](C)CC)NC(=O)[C@H]([C@@H](C)CC)NC(=O)[C@H](C(C)C)NC(=O)[C@H](CC(C)C)NC1=O
B10: SP-33 (peptide)
peptide: Ac-FIDEEVE[Nle][S5]LVI[S5][Nle]ALDRI-NH2
modifications: staple 9-13
SMILES: CCCC[C@H](NC(=O)[C@H](CCC(=O)O)NC(=O)[C@@H](NC(=O)[C@H](CCC(=O)O)NC(=O)[C@H](CCC(=O)O)NC(=O)[C@H](CC(=O)O)NC(=O)[C@@H](NC(=O)[C@H](Cc1ccccc1)NC(C)=O)[C@@H](C)CC)C(C)C)C(=O)N[C@@]1(C)CCCC=CCCC[C@@](C)(C(=O)N[C@@H](CCCC)C(=O)N[C@@H](C)C(=O)N[C@@H](CC(C)C)C(=O)N[C@@H](CC(=O)O)C(=O)N[C@@H](CCCNC(=N)N)C(=O)N[C@H](C(N)=O)[C@@H](C)CC)NC(=O)[C@H]([C@@H](C)CC)NC(=O)[C@H](C(C)C)NC(=O)[C@H](CC(C)C)NC1=O
B11: SP-34 (peptide)
peptide: Ac-FIDEEVLD[S5]LVI[S5][Nle]ALDRI-NH2
modifications: staple 9-13
SMILES: CCCC[C@H](NC(=O)[C@]1(C)CCCC=CCCC[C@](C)(NC(=O)[C@H](CC(=O)O)NC(=O)[C@H](CC(C)C)NC(=O)[C@@H](NC(=O)[C@H](CCC(=O)O)NC(=O)[C@H](CCC(=O)O)NC(=O)[C@H](CC(=O)O)NC(=O)[C@@H](NC(=O)[C@H](Cc2ccccc2)NC(C)=O)[C@@H](C)CC)C(C)C)C(=O)N[C@@H](CC(C)C)C(=O)N[C@@H](C(C)C)C(=O)N[C@@H]([C@@H](C)CC)C(=O)N1)C(=O)N[C@@H](C)C(=O)N[C@@H](CC(C)C)C(=O)N[C@@H](CC(=O)O)C(=O)N[C@@H](CCCNC(=N)N)C(=O)N[C@H](C(N)=O)[C@@H](C)CC
B12: SP-35 (peptide)
peptide: Ac-FIDEEVL[Nle][S5]DVI[S5][Nle]ALDRI-NH2
modifications: staple 9-13
SMILES: CCCC[C@H](NC(=O)[C@H](CC(C)C)NC(=O)[C@@H](NC(=O)[C@H](CCC(=O)O)NC(=O)[C@H](CCC(=O)O)NC(=O)[C@H](CC(=O)O)NC(=O)[C@@H](NC(=O)[C@H](Cc1ccccc1)NC(C)=O)[C@@H](C)CC)C(C)C)C(=O)N[C@@]1(C)CCCC=CCCC[C@@](C)(C(=O)N[C@@H](CCCC)C(=O)N[C@@H](C)C(=O)N[C@@H](CC(C)C)C(=O)N[C@@H](CC(=O)O)C(=O)N[C@@H](CCCNC(=N)N)C(=O)N[C@H](C(N)=O)[C@@H](C)CC)NC(=O)[C@H]([C@@H](C)CC)NC(=O)[C@H](C(C)C)NC(=O)[C@H](CC(=O)O)NC1=O
B13: SP-36 (peptide)
peptide: Ac-FIDEEVL[Nle][S5]LEI[S5][Nle]ALDRI-NH2
modifications: staple 9-13
SMILES: CCCC[C@H](NC(=O)[C@H](CC(C)C)NC(=O)[C@@H](NC(=O)[C@H](CCC(=O)O)NC(=O)[C@H](CCC(=O)O)NC(=O)[C@H](CC(=O)O)NC(=O)[C@@H](NC(=O)[C@H](Cc1ccccc1)NC(C)=O)[C@@H](C)CC)C(C)C)C(=O)N[C@@]1(C)CCCC=CCCC[C@@](C)(C(=O)N[C@@H](CCCC)C(=O)N[C@@H](C)C(=O)N[C@@H](CC(C)C)C(=O)N[C@@H](CC(=O)O)C(=O)N[C@@H](CCCNC(=N)N)C(=O)N[C@H](C(N)=O)[C@@H](C)CC)NC(=O)[C@H]([C@@H](C)CC)NC(=O)[C@H](CCC(=O)O)NC(=O)[C@H](CC(C)C)NC1=O

The binders below were run against T1, His6-tagged p300 (AA 323-423) (UniProt Q09472 323-423) (assay: TR-FRET HIF1a/p300 displacement; grade = IC50 >700 nM).
T1 construct: range 323-423; also called p300-CH; not shown: His6 tag
T1 sequence (Q09472 323-423 limits assumed): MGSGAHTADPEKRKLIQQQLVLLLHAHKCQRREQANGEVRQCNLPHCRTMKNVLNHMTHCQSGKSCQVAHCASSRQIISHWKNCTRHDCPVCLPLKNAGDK
Method: The ability of peptides to displace HIF1α c-terminal trans-activation domain from p300-CH was measured by a TR FRET assay. […] The complex was diluted to 300 nM final in complete assay media and competitor peptides were added. The complete assay media contained 150 mM NaCl (Sigma +S5150 or equivalent), 20 mM HEPES pH 7.4 (Boston Bioproducts, Ashland, Mass.; #BB-2076), 7.5 mM CHAPS (Thermo #28300 or equivalent), and 1 mM DTT. Protein and peptide were incubated at room temperature for 1 hour before the addition of anti-Flag-K and anti-6×HIS-D2 (CisBio, Bedford Mass.) HTRF reconstitution buffer (50 mM Phosphate pH 7, 0.8 Potassium Flouride, BSA 0.2%)¹ to a final concentration of 0.5 μM and 4 nM respectively. The reaction continued for an additional two hours at room temperature. The reaction was read on a TECAN F500 plate reader with settings recommended by CisBio. The ratio of donor to acceptor fluorescence was calculated. The resulting data was analyzed with Graphpad Prism 5.0. IC50 values were calculated for both proteins using the One Site Fit-LogIC50 equation and presented in the column “IC₅₀ (nM) (HIF1α_p300 Displacement+CHAPS)” of Table 6. ¹ Cisbio USA, Bedford, Mass.; 61HISDLB (lot 007A), 61FG2KLB (024A), HTRF Buffer (62RB3RDF)

IC50, > 700 nM:
B1
B2
B3
B4
B5
B6
B7
B8
B9
B10
B11
B12
B13
